In PMC7181223, “A DyP-Type Peroxidase of Pleurotus sapidus with Alkene Cleaving Activity” (Molecules, 2020):

Substrate: CCn1c(=NN=c2sc3cc(S(=O)(=O)O)ccc3n2CC)sc2cc(S(=O)(=O)O)ccc21
Assay: purified protein
Format: biochemical, Pleurotus sapidus
Conditions: 100 µM H2O2, 25 mM MnSO4, optimal pH and temperature (pH 3.5, 40 °C)

B1: PsaPOX (DyP-type peroxidase of Pleurotus sapidus) (Pleurotus sapidus) (protein)
chain: MTTPAPPLDLNNIQGDILGGLPKKTETYFFFDVTNVDRFKANMTQFIPHVKTSAGIVKDREAIKEHKRQKRPGLVPMAAVNVSFSHLGLQKLGITDDLSDSSFTTGQRKDAEVLGDPGTKNGDTFTPAWEAPFLKDIHGVIFVAGDCHASVHKKLDEIKHIFGVGTSHASISEVTHVRGDVRPGQVSAHEHFGFLDGISNPAVDQFDQNPFPGQDSIRPGFILAKENGDSRAAARPDWAKDGSFLTFRYLFQMVPEFDDFLESNPIVLPGLSRKEGSELLGARIVGRWKSGAPIEITPLKDDPKLGADAQRNNNFDFGDSLVRGDQTKCPFAAHIRKTYPRNDLEGPPLNADIDNRRIIRRGIQFGPEVTSQEHHDKKTHHGRGLLFVCYSSSIDDGFHFIQQSWANAPNFPVNAVTSAGPIPPLDGVIPGFDAIIGQKVGGGIRQISGTNPNDPTTNITLPDQDFVIPRGGEYFFSPSISALKTKFAAGVASSAPQAQAPIST
notes: full-length ORF (1512 bp, 504 aa), C-terminal 6x His tag kept, S. cerevisiae alpha-factor secretion signal (pPIC9), Komagataella pfaffii GS115, Ni-NTA; monomeric
Km: 37 ± 4 µM
kcat/Km: 184000 ± 5000 M⁻¹ s⁻¹
